Source: the supplement of paper PMC10567573

B1: MMP1 (parent)
chain: YTPDLPRADVDHAIEKAFQLWSNV
B2: HDAC6 (parent)
chain: YVHHQALLDVKNIAHQNKFGEDMP

Variants of: B1
Test: protein stability index of a GFP-peptide fusion (GPS, HEK-293T) (PSI 1-6); higher = more stable
Conditions: c terminus: a fixed tail appended
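Further: lentivirally expressed fusions sorted by FACS into six bins by GFP to DsRed ratio, PSI derived from sequencing read proportions per bin multiplied by bin number.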

Protein stability index of substitutions, site by site:
D4: Y 3.17, W 1.94, L 3.1, I 2.75, G 2.16, A 1.75, N 2.56, P 1.99, E 1.4, V 3.17, H 2.28, R 2.52, F 2.54, T 3.69, S 2.35, K 2.38, C 1.69, Q 2.62, M 2.23
Y1: N 3.18, M 3.16, D 3.57, S 3.52, P 3.47, Q 3.08, T 2.92, A 4.18, G 2.97, H 3.43, C 2.33, R 2.97, L 2.87, V 3.19, W 2.32, E 3.53, I 2.64, K 3.32, F 2.48
L5: F 2.64, G 1.32, E 2.16, A 2.11, C 1.84, D 2.34
P3: L 1.62, T 1.84, A 1.79, G 1.62, R 2.49, M 1.88, Y 1.8, C 1.54, S 2.36, W 2.87, Q 2.96, F 2.3, N 2.5, D 3.37, V 2.13, E 2.66, K 2.01, I 1.92, H 1.79
T2: W 2.16, D 3.08, P 2.17, Q 1.74, L 1.83, A 2.4, N 2.18, V 1.95, R 2.31, F 2.17, S 1.95, G 2.4, Y 2.45, C 1.93, H 2.11, E 3.6, M 2.35, I 2.52, K 2.56

Variants of: B2
Test: as above
Conditions: c terminus: a fixed tail appended

Protein stability index, by site and new letter:
N17: M 1.59, Q 1.85, C 1.87, K 1.97, F 1.38, V 1.75
H4: W 3.43, T 1.47, R 1.74, P 3.02, Y 1.78, E 2.82, G 1.99, N 1.65, Q 2.61
H3: T 1.82, W 2.41, Q 1.78, I 1.66, R 1.39, Y 1.69, P 1.65, F 1.48, A 1.55, K 2.18
L7: W 2.77, M 2.32, H 2.25, Q 2.14, G 2.33, A 1.89, C 1.97, D 2.61
D9: A 3.21, H 2.56, V 1.25, T 1.95, I 3.33, N 2.66, C 2.38, M 1.76, R 1.65, P 4.3, L 2.25
A6: M 1.96, E 2.17, F 1.4, K 1.64, D 2.22, H 1.86, R 2.07, I 3.2, T 1.97, Y 2.07, W 2.7, N 1.84, S 2.41
I13: H 1.95, D 2.77, E 2.27, A 2.18, P 2.17, N 1.98, F 1.94, S 2.28, L 1.77, T 1.9, Q 1.92, M 2.47
A14: I 2.12, S 2.35, F 1.52, K 2.33, V 2.59, T 1.82, C 3.38, W 2.79, L 1.9, D 2, E 2.3
Y1: M 3.49, I 3.21, R 3.59, T 3.75, G 4.19, W 2.98, L 3.3, A 4.15, S 4.29, Q 4.14
D22: A 1.67, G 1.64, H 2.4, C 2.63, R 1.73, V 1.5, N 2.31, E 1.69, M 1.68, F 1.57, L 2.17, I 2.21, Q 1.76, W 2.14, K 2.09, Y 1.74
G20: R 1.56, W 2.41, Y 2.58, H 2.19, N 1.96, C 1.83, D 2.28, Q 2.03, V 2.13, L 2.19, M 2.35, K 2.14, F 3.09
H15: C 1.7, S 1.75, T 1.59, W 2.85, F 1.51, P 2.37, G 1.51, M 2.12, R 2.16, I 1.77, K 2.35
P24: K 2.25, C 1.98, D 1.96, A 1.46, Q 1.91, G 2.36, M 1.96, R 1.56
L8: K 2.31, Y 2.32, E 2.87, F 3.34, H 2.72, P 2, T 2.44, N 2.71
K18: E 2.37, F 1.9, V 1.74, N 2.26, G 2.58, Q 1.95, Y 2.2, W 1.9, D 1.7, A 2.23, M 1.94, L 1.73, P 2.35
F19: H 2.53, D 2.48, I 1.76, G 2.43, R 1.88, Q 2.35, P 2.83, L 2.09, Y 1.96, E 2.45, N 2.05, K 1.91
V2: A 3.16, W 2.21, L 2.56, S 3.56, D 4.33, H 1.65, C 2.02
M23: L 1.97, Y 2.14, F 2.23, Q 1.68, D 2.17, H 1.93, E 2.06, T 2.63, W 1.49, G 2.03, K 2.26, A 1.94, S 2.13
Q16: F 1.59, M 2.28, K 1.49, V 1.48, Y 2.31, H 1.77
V10: N 2.05, T 1.86, E 2.5, R 1.85, D 2.74, K 2.21, H 2.14, M 1.73, Y 1.62, W 2.37, L 1.9, A 2.33
Q5: N 1.79, Y 2.35, T 1.95, A 2.4, H 2.19, R 2, D 2.08, G 1.87, I 1.88, M 2.21
N12: E 1.66, K 2.18, I 2.4, S 2.09, G 2.71, L 1.93, H 1.72, M 1.87
K11: S 2.74, W 3.04, Y 2.77, L 1.27, D 2.18, Q 1.4, A 1.81, G 1.95, R 2.08, E 2.24, M 1.72
E21: W 2.02, I 1.57, P 1.4, H 1.46, N 2, F 2.54, Q 2.11, R 1.47, V 1.61, T 2.01, G 2.14, M 1.71, L 1.72, Y 2.15
